The results in this text go back to publication PMC7094256 (Febs Letters, 2005).

B1: synthesized peptide ASSRSSSRSRGNSRN (aa 183–197 of SARS_N) (peptide)
peptide: ASSRSSSRSRGNSRN
B2: GST-tagged human heterogeneous nuclear ribonucleoprotein A1 (natural protein)
chain: MSKSESPKEPEQLRKLFIGGLSFETTDESLRSHFEQWGTLTDCVVMRDPNTKRSRGFGFVTYATVEEVDAAMNARPHKVDGRVVEPKRAVSREDSQRPGAHLTVKKIFVGGIKEDTEEHHLRDYFEQYGKIEVIEIMTDRGSGKKRGFAFVTFDDHDSVDKIVIQKYHTVNGHNCEVRKALSKQEMASASSSQRGRSGSGNFGGGRGGGFGGNDNFGRGGNFSGRGGFGGSRGGGGYGGSGDGYNGFGNDGSNFGGGGSYNDFGNYNNQSSNFGPMKGGNFGGRSSGPYGGGGQYFAKPRNQGGYGGSSSSSSYGSGRRF

Test [1] concerns the target B2. In words: SPR. A general note: In SPR one partner is held on a chip, and binding of the other changes the refractive index at the surface.
Test [2] has as its target His-tagged nucleocapsid protein of SARS coronavirus (SARS coronavirus, UniProt P59595 1-422). Briefly: SPR.

Sequence of His-tagged nucleocapsid protein of SARS coronavirus (P59595 whole entry): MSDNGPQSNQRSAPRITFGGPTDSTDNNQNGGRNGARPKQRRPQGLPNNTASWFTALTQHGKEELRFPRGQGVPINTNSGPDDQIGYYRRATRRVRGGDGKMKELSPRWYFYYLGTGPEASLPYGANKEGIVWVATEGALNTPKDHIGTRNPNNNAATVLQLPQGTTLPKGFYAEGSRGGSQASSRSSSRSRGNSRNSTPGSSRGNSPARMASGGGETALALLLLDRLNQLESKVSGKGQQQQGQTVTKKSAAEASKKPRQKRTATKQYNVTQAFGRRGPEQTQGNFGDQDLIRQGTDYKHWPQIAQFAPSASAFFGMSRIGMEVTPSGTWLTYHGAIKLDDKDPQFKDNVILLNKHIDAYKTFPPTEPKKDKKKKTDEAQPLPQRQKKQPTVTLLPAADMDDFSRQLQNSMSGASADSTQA

Usually Kd stands for the constant that tells how readily two partners part at equilibrium. As for B1, the affinity in test [1], expressed as Kd, was 148 ± 12 µM.

The term koff denotes a measure of how fast the partners let go of each other. A low value points to a long-lived complex. By kon is commonly meant the second-order rate constant of association. A lower kon goes with slow association. For B2, in test [2], the affinity, expressed as Kd, was 0.35 ± 0.02 µM; the koff came out at 0.00206 s⁻¹; the kon was determined as 5830 M⁻¹ s⁻¹.
